B1: Azoarcus group I ribozyme (parent)
chain: GUGCCUUGCGCCGGGAAACCACGCAAGGGAUGGUGUCAAAUUCGGCGAAACCUAAGCGCCCGCCCGGGCGUAUGGCAACGCCGAGCCAAGCUUCGGCGCCUGCGCCGAUGAAGGUGUAGAGACUAGACGGCACCCACCUAAGGCAAACGCUAUGGUGAAGGCAUAGUCCAGGGAGUGGCGAAAGUCACACAAACCGG

Variants of: B1
Assay: reverse-splicing fitness (ratio to wild type); higher = more active; in vitro selection; Mg2+ level not given
Outline: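 An in vitro group I ribozyme library with randomized positions was T7-transcribed and gel-purified. In triplicate, 10 pmol RNA in EPPS pH 7.5 was reacted with 50 pmoles of a 30-nt RNA substrate for 1 h at 37 °C across several added MgCl2 levels (1–48 mM), then stopped with EDTA. Products were reverse transcribed from a substrate-complementary primer, PCR-amplified and sequenced (HiSeq 4000). Fitness is a variant's read proportion after selection over that before, normalised to wild type.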

Point of comparison: C82U A120U C150A, reverse-splicing fitness 0.0169. Against it:
- C82U A120U A145U C150A U176C — lower, 0.0101
- C82U A120U A145U C150G U176G — lower, 0.00253
- C82U A120U A145U C150G U176C — lower, 0.0104
- C82U A120U A145U C150G U176A — lower, 0.00548
- C82U A120U C150G C169G U176A — lower, 0.00396
- C82U A120U A145C C150U U176G — lower, 0.00482
- C82U A120U A145G C169A — lower, 0.00259
- C82U A120U A145G C169U — lower, 0.00624
- C82U A120U A145G C169G — lower, 0.00532
- C82U A120U A145G C150A U176A — lower, 0.0113
- C82U A120U A145G C150A U176G — lower, 0.00354
- C82U A120U A145G C150A U176C — lower, 0.0141
- C82U A120U A145U C150U C169G U176C — lower, 0.00299
- C82U A120U A145U C150U C169G U176A — lower, 0.00254
- C82U A120U A145U C150U C169G U176G — lower, 0.00157
- C82U A120U A145U C169U U176C — lower, 0.00358
- C82U A120U A145U C169U U176A — lower, 0.00227
- C82U A120U A145U C169U U176G — lower, 0.00161
- C82U A120U A145C C169A — lower, 0.00174
- C82U A120U A145C C169G — lower, 0.00426
- C82U A120U A145C C169U — lower, 0.00535
- C82U A120U A145G C150A C169G U176C — lower, 0.00372
- C82U A120U A145G C150A C169G U176A — lower, 0.00525
- C82U A120U A145G C150A C169G U176G — lower, 0.00193
- C82U A120U A145C C169A U176C — lower, 0.0016
- C82U A120U A145C C169A U176G — lower, 0.00159
- C82U A120U A145C C169A U176A — lower, 0.00163
- C82U A120U A145G C150U C169G U176G — lower, 0.0018
- C82U A120U A145G C150U C169G U176C — lower, 0.00361
- C82U A120U A145G C150U C169G U176A — lower, 0.00433
- C82U A120U A145U C150U U176A — higher, 0.0284
- C82U A120U A145U C150U U176G — lower, 0.00848
- C82U A120U A145U C150U U176C — higher, 0.0465
- C82U A120U A145U C150A C169A — lower, 0.00179
- C82U A120U A145U C150A C169U — lower, 0.0022
- C82U A120U A145U C150A C169G — lower, 0.00199
- C82U A120U C150A C169A U176C — lower, 0.0026
- C82U A120U C150A C169A U176G — lower, 0.00199
- C82U A120U C150A C169A U176A — lower, 0.00373
- C82U A120U A145U C150G C169G U176G — lower, 0.00173
- C82U A120U A145U C150G C169G U176A — lower, 0.00198
- C82U A120U A145U C150G C169G U176C — lower, 0.00209
- C82U A120U A145G C150U C169U — lower, 0.00625
- C82U A120U A145G C150U C169G — lower, 0.00546
- C82U A120U A145G C150U C169A — lower, 0.00495
- C82U A120U A145G C150U C169A U176C — lower, 0.00278
- C82U A120U A145G C150U C169A U176A — lower, 0.00476
- C82U A120U A145G C150U C169A U176G — lower, 0.0022
- C82U A120U C150G — lower, 0.0156
- C82U A120U A145G C169A U176A — lower, 0.0025
- C82U A120U A145G C169A U176G — lower, 0.00152
- C82U A120U A145G C169A U176C — lower, 0.00239
- C82U A120U A145G C150A C169U — lower, 0.00334
- C82U A120U A145G C150A C169G — lower, 0.00351
- C82U A120U A145G C150A C169A — lower, 0.00483
- C82U A120U C150G C169G — lower, 0.0055
- C82U A120U C150G C169A — lower, 0.00679
- C82U A120U C150A C169G U176C — lower, 0.00268
- C82U A120U C150A C169G U176G — lower, 0.00171
- C82U A120U C150A C169G U176A — lower, 0.00443
- C82U A120U A145G C150A C169U U176C — lower, 0.00329
- C82U A120U A145G C150A C169U U176G — lower, 0.00199
- C82U A120U A145G C150A C169U U176A — lower, 0.0038
- C82U A120U A145G C150G — higher, 0.0229
- C82U A120U A145G C150U — higher, 0.137
- C82U A120U A145G C150A — higher, 0.0257
- C82U A120U A145C C169G U176G — lower, 0.00143
- C82U A120U A145C C169G U176A — lower, 0.00282
- C82U A120U A145C C169G U176C — lower, 0.00167
- C82U A120U A145G U176A — higher, 0.0429
- C82U A120U A145G U176C — higher, 0.076
- C82U A120U A145G U176G — lower, 0.0114
- C82U A120U A145G — higher, 0.167
- C82U A120U A145U — higher, 0.181
- C82U A120U A145G C150G C169U — lower, 0.00613
- C82U A120U A145G C150G C169G — lower, 0.00646
- C82U A120U A145G C150G C169A — lower, 0.00721
- C82U A120U A145G C150U U176G — lower, 0.0067
- C82U A120U A145G C150U U176A — higher, 0.0299
- C82U A120U A145G C150U U176C — higher, 0.0607
- C82U A120U A145C C169U U176C — lower, 0.00289
- C82U A120U A145C C169U U176G — lower, 0.00172
- C82U A120U A145C C169U U176A — lower, 0.00253
